Where “and” joins values, the source holds several entries; their conditions need not be identical. Equal values may be shown once. Read-outs that look alike come from different tables or passages of the source. Values belong to the molecule of their own block, whether it stands above or below them.
B3: Bacillus subtilis clamp-loader τ subunit (natural protein, UniProt P09122 1-563, looked up)
chain: MSYQALYRVFRPQRFEDVVGQEHITKTLQNALLQKKFSHAYLFSGPRGTGKTSAAKIFAKAVNCEHAPVDEPCNECAACKGITNGSISDVIEIDAASNNGVDEIRDIRDKVKFAPSAVTYKVYIIDEVHMLSIGAFNALLKTLEEPPEHCIFILATTEPHKIPLTIISRCQRFDFKRITSQAIVGRMNKIVDAEQLQVEEGSLEIIASAADGGMRDALSLLDQAISFSGDILKVEDALLITGAVSQLYIGKLAKSLHDKNVSDALETLNELLQQGKDPAKLIEDMIFYFRDMLLYKTAPGLEGVLEKVKVDETFRELSEQIPAQALYEMIDILNKSHQEMKWTNHPRIFFEVAVVKICQTSHQSAADLPEVDMLMKKIQQLEQEVERLKTTGIKAAAESPKKEAPRVPKGGKSNYKAPVGRIHEILKEATRPDLDLLRNSWGKLLAHLKQQNKVSHAALLNDSEPVAAGSAAFVLKFKYEIHCKMVAEDNNGVRTNLEQILESMLGKRMDLIGVPEAQWGKIREEFLEDHQQENEGSNEPAEEDPLIAEAKKLVGADLIEIKD

Legend:
Assay in all cases: native MS
[1] = target: Bacillus subtilis clamp-loader δ subunit (yqeN) (Bacillus subtilis) (UniProt P54459)
[2] = target: the molecule itself
[3] = target: B3
[4] = target: B3; remark: listed apart in the source
[5] = target: B3; remark: listed apart in the source
[6] = target: the molecule itself; remark: listed apart in the source
[7] = target: T1, Bacillus stearothermophilus DnaB helicase (Bacillus stearothermophilus, UniProt Q9X4C9 1-454)
T1 sequence (looked up): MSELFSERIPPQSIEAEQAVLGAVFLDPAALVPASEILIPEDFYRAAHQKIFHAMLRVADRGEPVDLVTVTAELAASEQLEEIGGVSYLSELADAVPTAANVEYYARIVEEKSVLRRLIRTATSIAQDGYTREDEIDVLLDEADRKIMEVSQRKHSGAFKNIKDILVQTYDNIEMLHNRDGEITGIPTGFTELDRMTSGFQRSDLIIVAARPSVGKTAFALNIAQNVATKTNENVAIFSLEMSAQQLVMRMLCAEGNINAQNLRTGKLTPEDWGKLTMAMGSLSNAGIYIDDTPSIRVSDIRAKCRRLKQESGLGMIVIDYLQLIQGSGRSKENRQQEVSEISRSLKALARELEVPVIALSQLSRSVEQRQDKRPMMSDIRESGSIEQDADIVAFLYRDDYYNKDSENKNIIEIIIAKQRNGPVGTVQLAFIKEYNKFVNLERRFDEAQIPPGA

[8] = target: the molecule itself; remark: listed apart in the source

stoichiometry N (subunits in the oligomer) [1]: 2
Molecule: Bacillus subtilis clamp-loader δ subunit (yqeN) (from UniProt P54459 1-347) (natural protein)

stoichiometry N [3]: 3 τ per δ′ and 2 τ per δ′
B1: Bacillus subtilis clamp-loader δ′ subunit (holB) (natural protein, UniProt P37540 1-329, looked up)
chain: MAISWKEMNELQPRVMKLLYNSIEKDRLSHAYLFEGKKGTGKLDAALLLAKSFFCLEGGAEPCESCRNCKRIESGNHPDLHLVQPDGLSIKKAQIQALQEEFSKTGLESHKKLYIISHADQMTANAANSLLKFLEEPNKDTMAVLITEQPQRLLDTIISRCQTLPFQPLQPKAIEDRLIEQDVSPHMARLLANMTNNVAEAVELSRNDEFAESRAKVIKLYEVLHQRKGHAFFFIQDQWMPFFKEKTHQEMGLDMLLLIYRDVLSIQIGNEDKLIYQDLFQSIKQHALQSTQQSVTNQILAVLEAKKRLHSNVNVQGLMEHLVLMLQEG
stoichiometry N [2]: 2 subunits in the oligomer

stoichiometry N [4]: 3 τ per δ
stoichiometry N [5]: 2 τ per δ
B2: Bacillus subtilis clamp-loader δ subunit (yqeN) (natural protein, UniProt P54459 1-347, looked up)
chain: MVFDVWKSLKKGEVHPVYCLYGKETYLLQETVSRIRQTVVDQETKDFNLSVFDLEEDPLDQAIADAETFPFMGERRLVIVKNPYFLTGEKKKEKIEHNVSALESYIQSPAPYTVFVLLAPYEKLDERKKLTKALKKHAFMMEAKELNAKETTDFTVNLAKTEQKTIGTEAAEHLVLLVNGHLSSIFQEIQKLCTFIGDREEITLDDVKMLVARSLEQNIFELINKIVNRKRTESLQIFYDLLKQNEEPIKIMALISNQFRLILQTKYFAEQGYGQKQIASNLKVHPFRVKLAMDQARLFSEEELRLIIEQLAVMDYEMKTGKKDKQLLLELFLLQLLKRNEKNDPHY

Molecule: B3
stoichiometry N [6]: 3 subunits in the oligomer and 2 subunits in the oligomer and 5 subunits in the oligomer
stoichiometry N [7]: 3 τ per DnaB hexamer
stoichiometry N [8]: 4 subunits in the oligomer

Reference: article PMC3643586 (Nucleic Acids Research, 2013)
